Reference: patent US20200165325A1

How the values were obtained:
[1] = target: HIV-1 Env of strain 0330.v4.c3 (HIV-1)
[2] = target: HIV-1 Env of strain 0815.v3.c3 (HIV-1)
[3] = target: HIV-1 Env of strain 1054_07_TC4_1499 (HIV-1)
[4] = target: HIV-1 Env of strain 211-9 (HIV-1)
[5] = target: HIV-1 Env of strain 231965.c01 (HIV-1)
[6] = target: HIV-1 Env of strain 231966.c02 (HIV-1)
[7] = target: HIV-1 Env of strain 3103.v3.c10 (HIV-1)
[8] = target: HIV-1 Env of strain 3301.v1.c24 (HIV-1)
[9] = target: HIV-1 Env of strain 3718.v3.c11 (HIV-1)
[10] = target: HIV-1 Env of strain 620345.c01 (HIV-1)
[11] = target: HIV-1 Env of strain 62357_14_D3_4589 (HIV-1)
[12] = target: HIV-1 Env of strain 6540.v4.c1 (HIV-1)
[13] = target: HIV-1 Env of strain 703357.C02 (HIV-1)
[14] = target: HIV-1 Env of strain 89-F1_2_25 (HIV-1)
[15] = target: HIV-1 Env of strain AC10.0.29 (HIV-1)
[16] = target: HIV-1 Env of strain C1080.c03 (HIV-1)
[17] = target: HIV-1 Env of strain C2101.c01 (HIV-1)
[18] = target: HIV-1 Env of strain CAAN5342.A2 (HIV-1)
[19] = target: HIV-1 Env of strain CAP210.2.00.E8 (HIV-1)
[20] = target: HIV-1 Env of strain CAP45.2.00.G3 (HIV-1)
[21] = target: HIV-1 Env of strain CNE17 (HIV-1)
[22] = target: HIV-1 Env of strain CNE20 (HIV-1)
[23] = target: HIV-1 Env of strain CNE21 (HIV-1)
[24] = target: HIV-1 Env of strain CNE30 (HIV-1)
[25] = target: HIV-1 Env of strain CNE53 (HIV-1)
[26] = target: HIV-1 Env of strain CNE58 (HIV-1)
[27] = target: HIV-1 Env of strain Ce0393_C3 (HIV-1)
[28] = target: HIV-1 Env of strain Ce0682_E4 (HIV-1)
[29] = target: HIV-1 Env of strain Ce1176_A3 (HIV-1)
[30] = target: HIV-1 Env of strain Ce2010_F5 (HIV-1)
[31] = target: HIV-1 Env of strain Ce703010054_2A2 (HIV-1)
[32] = target: HIV-1 Env of strain P0402_c2_11 (HIV-1)
[33] = target: HIV-1 Env of strain P1981_C5_3 (HIV-1)
[34] = target: HIV-1 Env of strain Q23.17 (HIV-1)
[35] = target: HIV-1 Env of strain Q259.d2.17 (HIV-1)
[36] = target: HIV-1 Env of strain Q461.e2 (HIV-1)
[37] = target: HIV-1 Env of strain Q769.d22 (HIV-1)
[38] = target: HIV-1 Env of strain QH0692.42 (HIV-1)
[39] = target: HIV-1 Env of strain R1166.c01 (HIV-1)
[40] = target: HIV-1 Env of strain REJO4541.67 (HIV-1)
[41] = target: HIV-1 Env of strain SC422661.8 (HIV-1)
[42] = target: HIV-1 Env of strain T250-4 (HIV-1)
[43] = target: HIV-1 Env of strain T257-31 (HIV-1)
[44] = target: HIV-1 Env of strain T278-50 (HIV-1)
[45] = target: HIV-1 Env of strain THRO4156.18 (HIV-1)
[46] = target: HIV-1 Env of strain TRJO4551.58 (HIV-1)
[47] = target: HIV-1 Env of strain TRO.11 (HIV-1)
[48] = target: HIV-1 Env of strain WEAU_d15_410_787 (HIV-1)
[49] = target: HIV-1 Env of strain WITO4160.33 (HIV-1)
[50] = target: HIV-1 Env of strain X1254_c3 (HIV-1)
[51] = target: HIV-1 Env of strain ZM109F.PB4 (HIV-1)
[52] = target: HIV-1 Env of strain ZM135M.PL10a (HIV-1)
[53] = target: HIV-1 Env of strain ZM197M.PB7 (HIV-1)
[54] = target: HIV-1 Env of strain ZM214M.PL15 (HIV-1)
[55] = target: HIV-1 Env of strain ZM233M.PB6 (HIV-1)
[56] = target: HIV-1 Env of strain ZM247v1(Rev-) (HIV-1)
[57] = target: HIV-1 Env of strain ZM249M.PL1 (HIV-1)

**Q.** Which In vitro neutralization IC80 [1] does the source give for NIH45-46 G54F IgG (antibody) here?
**A.** 0.13 µg/mL

**Q.** What about the In vitro neutralization IC80 [2] of the same substance?
**A.** 0.014 µg/mL

**Q.** And the In vitro neutralization IC80 [3]?
**A.** 0.283 µg/mL

**Q.** What about the In vitro neutralization IC80 [4] of the same substance?
**A.** > 50 µg/mL

**Q.** What about the In vitro neutralization IC80 [5] of the same substance?
**A.** 0.062 µg/mL

**Q.** What about the In vitro neutralization IC80 [6] of the same substance?
**A.** 0.24 µg/mL

**Q.** And the In vitro neutralization IC80 [7]?
**A.** 1.28 µg/mL

**Q.** What about the In vitro neutralization IC80 [8] of the same substance?
**A.** 0.011 µg/mL

**Q.** And the In vitro neutralization IC80 [9]?
**A.** 4.62 µg/mL

**Q.** What about the In vitro neutralization IC80 [10] of the same substance?
**A.** > 50 µg/mL

**Q.** What about the In vitro neutralization IC80 [11] of the same substance?
**A.** 0.14 µg/mL

**Q.** And the In vitro neutralization IC80 [12]?
**A.** > 50 µg/mL

**Q.** And the In vitro neutralization IC80 [13]?
**A.** > 50 µg/mL

**Q.** And the In vitro neutralization IC80 [14]?
**A.** > 50 µg/mL

**Q.** And the In vitro neutralization IC80 [15]?
**A.** 1.12 µg/mL

**Q.** What about the In vitro neutralization IC80 [16] of the same substance?
**A.** 2.26 µg/mL

**Q.** And the In vitro neutralization IC80 [17]?
**A.** 0.42 µg/mL

**Q.** What about the In vitro neutralization IC80 [18] of the same substance?
**A.** 0.28 µg/mL

**Q.** What about the In vitro neutralization IC80 [19] of the same substance?
**A.** > 50 µg/mL

**Q.** What about the In vitro neutralization IC80 [20] of the same substance?
**A.** > 50 µg/mL

**Q.** And the In vitro neutralization IC80 [21]?
**A.** 0.287 µg/mL

**Q.** What about the In vitro neutralization IC80 [22] of the same substance?
**A.** 3.91 µg/mL

**Q.** What about the In vitro neutralization IC80 [23] of the same substance?
**A.** 0.66 µg/mL

**Q.** What about the In vitro neutralization IC80 [24] of the same substance?
**A.** 0.348 µg/mL

**Q.** What about the In vitro neutralization IC80 [25] of the same substance?
**A.** 0.024 µg/mL

**Q.** And the In vitro neutralization IC80 [26]?
**A.** 0.11 µg/mL

**Q.** And the In vitro neutralization IC80 [27]?
**A.** 0.173 µg/mL

**Q.** What about the In vitro neutralization IC80 [28] of the same substance?
**A.** 0.056 µg/mL

**Q.** What about the In vitro neutralization IC80 [29] of the same substance?
**A.** 0.83 µg/mL

**Q.** What about the In vitro neutralization IC80 [30] of the same substance?
**A.** 0.186 µg/mL

**Q.** What about the In vitro neutralization IC80 [31] of the same substance?
**A.** 0.07 µg/mL

**Q.** What about the In vitro neutralization IC80 [32] of the same substance?
**A.** 0.047 µg/mL

**Q.** And the In vitro neutralization IC80 [33]?
**A.** 0.11 µg/mL

**Q.** What about the In vitro neutralization IC80 [34] of the same substance?
**A.** 0.07 µg/mL

**Q.** And the In vitro neutralization IC80 [35]?
**A.** 0.036 µg/mL

**Q.** And the In vitro neutralization IC80 [36]?
**A.** 0.135 µg/mL

**Q.** And the In vitro neutralization IC80 [37]?
**A.** 0.023 µg/mL

**Q.** And the In vitro neutralization IC80 [38]?
**A.** 1.65 µg/mL

**Q.** What about the In vitro neutralization IC80 [39] of the same substance?
**A.** 1.32 µg/mL

**Q.** And the In vitro neutralization IC80 [40]?
**A.** 0.028 µg/mL

**Q.** And the In vitro neutralization IC80 [41]?
**A.** 0.1 µg/mL

**Q.** And the In vitro neutralization IC80 [42]?
**A.** > 50 µg/mL

**Q.** And the In vitro neutralization IC80 [43]?
**A.** 0.51 µg/mL

**Q.** What about the In vitro neutralization IC80 [44] of the same substance?
**A.** > 50 µg/mL

**Q.** What about the In vitro neutralization IC80 [45] of the same substance?
**A.** 3.01 µg/mL

**Q.** And the In vitro neutralization IC80 [46]?
**A.** 0.08 µg/mL

**Q.** And the In vitro neutralization IC80 [47]?
**A.** 0.3 µg/mL

**Q.** What about the In vitro neutralization IC80 [48] of the same substance?
**A.** 4 ng/mL

**Q.** And the In vitro neutralization IC80 [49]?
**A.** 0.14 µg/mL

**Q.** What about the In vitro neutralization IC80 [50] of the same substance?
**A.** 0.043 µg/mL

**Q.** What about the In vitro neutralization IC80 [51] of the same substance?
**A.** 0.17 µg/mL

**Q.** What about the In vitro neutralization IC80 [52] of the same substance?
**A.** 0.43 µg/mL

**Q.** And the In vitro neutralization IC80 [53]?
**A.** 0.23 µg/mL

**Q.** And the In vitro neutralization IC80 [54]?
**A.** 0.3 µg/mL

**Q.** What about the In vitro neutralization IC80 [55] of the same substance?
**A.** 0.99 µg/mL

**Q.** And the In vitro neutralization IC80 [56]?
**A.** 2.45 µg/mL

**Q.** And the In vitro neutralization IC80 [57]?
**A.** 0.016 µg/mL
